Paper PMC4401446
Each block holds one substance with its values, some of them ahead of it.

Columns and labels:
Assay in all cases: SEC; protein at 500 ug/mL incubated 3 hours at 30°C, then Superdex 75 in 50 mM Tris-HCl pH 8.0, 150 mM NaCl, 5% (v/v) glycerol, calibrated with molecular mass standards; dimer to monomers
[1] = target: human triosephosphate isomerase N71D mutant (human)
[2] = target: human triosephosphate isomerase N15D/N71D double mutant (human)
[3] = target: human triosephosphate isomerase N15D mutant (human)

stoichiometry N [1]: 2
Substance: human triosephosphate isomerase N71D mutant (enzyme)

stoichiometry N [2]: 2
Substance: human triosephosphate isomerase N15D/N71D double mutant (enzyme)

stoichiometry N [3]: 2
Substance: human triosephosphate isomerase N15D mutant (enzyme)
